Reference: US20210230304A1 (SYSMEX, published 2021)

Legend:
[1] = molecular target: T1, HER2 protein (R&D Systems, Inc., Catalog No. 1129-ER) (UniProt P04626 23-652); test: SPR, Biacore T200; reference is the wild-type anti-HER2 antibody
T1 construct: Bought reagent
Procedure: (§1) The affinity of the prepared variants was measured using Biacore (registered trademark) T200 (GE Healthcare). […] Antigen was immobilized (immobilization: 50 RU) to a sensor chip for Biacore (registered trademark) Series S Sensor Chip CMS (GE Healthcare). The antibody solution was diluted to prepare antibody solutions of 30 nM, 15 nM, 7.5 nM, 3.75 nM and […]. The antibody solutions at each concentration were delivered to Biacore (registered trademark) T200 (GE Healthcare) (association time of 120 seconds and dissociation time of 1800 seconds). Measurement data was analyzed using Biacore (registered trademark) Evaluation software, and the data on the affinity of each antibody was obtained.
(§2) In the measurement, TSH protein (R&D Systems, Inc.) was used as an antigen of the anti-TSH antibody, and HER2 protein (R&D Systems, Inc., Catalog No. 1129-ER) was used as an antigen of the anti-HER2 antibody.

[2] = molecular target: T1, HER2 protein (R&D Systems, Inc., …); test: SPR, Biacore T200; antigen immobilised, antibody as analyte
Procedure: as §1, §2

B1: 76, 77, 81 variant (Arg) of the humanized anti-HER2 antibody (antibody, V domains shown)
VH: not shown
VL: DIQMTQSPSSLSASVGDRVTITCRASQDVNTAVAWYQQKPGKAPKLLIYSASFLYSGVPSRFSGSRSGTDFTLTIRRLQPRDFATYYCQQHYTTPPTFGQGTKVEIKR
Ratio (Kd against wild-type = 1) [1]: 2.71
Kd [2]: 0.0219 nM
